Assay results reported in patent publication US20160130329.

Molecular target: T1, H3K9me2 peptide
T1 chain: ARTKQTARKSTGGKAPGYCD

B1: SUV39H1 (protein)
chain: EVEYLCDYKKIREQEYYLVKWRGYPDSESTWEPRQNLKCVRILKQFHKDLERELLRRHHRSKTPRHLDPSLANYLVQKAKQRRALRRWEQELNAKRSHLGRITVENEVDLDGPPRAFVYINEYRVGEGITLNQVAVGCECQDCLWAPTGGCCPGASLHKFAYNDQGQVRLRAGLPIYECNSRCRCGYDCPNRVVQKGIRYDLCIFRTDDGRGWGVRTLEKIRKNSFVMEYVGEIITSEEAERRGQIYDRQGATYLFDLDYVEDVYTVDAAYYGNISHFVNHSCDPNLQVYNVFIDNLDERLPRIAFFATRTIRAGEELTFDYNMQVDPVDMESTRMDSNFGLAGLPGSPKKRVRIECKCGTESCRKYLF
  histone methyltransferase activity (H3K9me3 product detected by ELISA with 309M3-A): activity of the HMT SUV39H1 and its inhibition by an HMT inhibitor, chaetocin (Greiner et al., 2005), were clearly observed with 309M3-A
